± gives the uncertainty stated by the source.
B1: Calcium-binding protein 2, residues 155 to 219; numbered along this chain, Q9NPB3 (parent)
chain: RELRDAFREFDTNGDGRISVGELRAALKALLGERLSQREVDEILQDVDLNGDGLVDFEEFVRMMS

Variants of: B1
Test: abundance fitness (aPCA) (normalised: wild type 0, dead -1); higher = more abundant; growth selection in yeast, the domain comes from the species named
Settings: Homo sapiens

Abundance fitness, by site and new letter:
V20: G 0.004 ± 0.067; L 0.093 ± 0.05; M 0.066 ± 0.094; A -0.317 ± 0.092; K -0.639 ± 0.23; H -0.043 ± 0.13; N 0.081 ± 0.3; C 0.061 ± 0.16; T -0.146 ± 0.12; P 0.163 ± 0.11; Q -0.005 ± 0.081; S -0.164 ± 0.076
F7: M -0.33 ± 0.072; P -0.997 ± 0.11; G -1.03 ± 0.058; V -0.891 ± 0.078; Q -0.803 ± 0.13; Y -0.259 ± 0.12; K -1.12 ± 0.12; R -0.995 ± 0.062; I -0.644 ± 0.12; H -1.18 ± 0.35; C -0.422 ± 0.1; N -1.44 ± 0.4; T -0.713 ± 0.096; E -0.841 ± 0.1; W -0.142 ± 0.053
A6: T 0.173 ± 0.061; G -0.328 ± 0.048; W -0.111 ± 0.053; V 0.026 ± 0.06; S -0.011 ± 0.087; K 0.157 ± 0.088; P -0.952 ± 0.1; L -0.008 ± 0.048; H -0.479 ± 0.2; R 0.089 ± 0.044; E -0.076 ± 0.073; N 0.042 ± 0.21; D -0.709 ± 0.2; C 0.085 ± 0.1
A26: C 0.215 ± 0.11; D -0.379 ± 0.27; P -0.251 ± 0.07; M 0.111 ± 0.11; F -0.041 ± 0.29; W -0.454 ± 0.097; T -0.268 ± 0.091; G 0.05 ± 0.081; H -0.228 ± 0.15; V -0.095 ± 0.1; N -0.266 ± 0.16; Y -0.17 ± 0.1; S -0.214 ± 0.072; L 0.073 ± 0.058; R -0.371 ± 0.069; E -0.86 ± 0.12; K -0.587 ± 0.43
D11: R -1.18 ± 0.11; Q -0.434 ± 0.099; T -0.769 ± 0.099; M -1.17 ± 0.21; V -1.02 ± 0.092; P -0.992 ± 0.13; W -0.631 ± 0.095; L -0.937 ± 0.099; K -1.16 ± 0.26; S -0.633 ± 0.061; C -0.546 ± 0.11; Y -0.651 ± 0.3; A -0.677 ± 0.057; E -0.972 ± 0.097; H -1.17 ± 0.26
D5: Y -0.451 ± 0.087; S -0.382 ± 0.047; Q -0.007 ± 0.075; V -0.19 ± 0.051; R -0.119 ± 0.038; W -0.491 ± 0.071; T 0.038 ± 0.058
N13: A -0.537 ± 0.084; L -0.974 ± 0.1; V -0.668 ± 0.071; E -0.459 ± 0.1; R -0.477 ± 0.076; T -0.404 ± 0.095; Q -0.924 ± 0.14; K -0.676 ± 0.13; C -0.489 ± 0.26; P -0.811 ± 0.093; S -0.555 ± 0.09; M -0.797 ± 0.093; H -0.644 ± 0.087; Y -1.12 ± 0.34; D -0.019 ± 0.11; G -0.693 ± 0.12
E22: N -0.726 ± 0.35; D -0.49 ± 0.34; A -0.342 ± 0.066; R -0.549 ± 0.061; P -1.05 ± 0.16; Q -0.357 ± 0.1; W -0.837 ± 0.11; C -0.469 ± 0.23; Y -0.814 ± 0.14; M -0.535 ± 0.15; V -0.489 ± 0.074; I -0.729 ± 0.34; G 0.093 ± 0.11; T -0.486 ± 0.082
L27: M -0.025 ± 0.098; Y -0.136 ± 0.28; T 0.064 ± 0.082; C 0.014 ± 0.091; G 0.165 ± 0.052; N 0.088 ± 0.13; Q -0.095 ± 0.16; P -0.495 ± 0.081; F 0.077 ± 0.083; E -0.311 ± 0.077; S 0.161 ± 0.06; R -0.192 ± 0.057; I 0.102 ± 0.11; V 0.092 ± 0.068; K -0.006 ± 0.26; D -0.464 ± 0.14; A 0.122 ± 0.073; H -0.091 ± 0.15; W -0.137 ± 0.094
R17: S -0.087 ± 0.078; A 0.001 ± 0.058; E -0.295 ± 0.1; C 0.141 ± 0.088; T -0.217 ± 0.074; V -0.158 ± 0.053; Q -0.193 ± 0.11; P -0.701 ± 0.082; N -0.14 ± 0.47; I -0.141 ± 0.12; K 0.017 ± 0.11; F -0.021 ± 0.16; L 0.045 ± 0.066; G 0.045 ± 0.055; Y -0.02 ± 0.29; M -0.099 ± 0.096; W -0.159 ± 0.067
G21: P 0.044 ± 0.052; N -0.064 ± 0.1; V -0.061 ± 0.039; D 0.141 ± 0.089; Q -0.001 ± 0.11; K -0.193 ± 0.077; W -0.423 ± 0.2; T 0.01 ± 0.069; A 0 ± 0.055; C -0.244 ± 0.23; M -0.09 ± 0.093; F 0.102 ± 0.29; H -0.328 ± 0.3; L -0.049 ± 0.043; S -0.026 ± 0.066; I -0.134 ± 0.18; R -0.196 ± 0.053
L23: G -0.193 ± 0.07; T -0.023 ± 0.14; N -0.213 ± 0.096; Q -0.468 ± 0.12; Y -0.249 ± 0.15; V -0.133 ± 0.084; A 0.118 ± 0.072; M 0.025 ± 0.094; S -0.238 ± 0.15; C -0.139 ± 0.28; E -0.663 ± 0.14; F -0.235 ± 0.1; P -0.592 ± 0.12
G16: A -0.332 ± 0.046; F -0.992 ± 0.31; Q -0.223 ± 0.065; S -0.261 ± 0.055; C -0.527 ± 0.11; H -0.897 ± 0.39; I -1.2 ± 0.22; Y -0.743 ± 0.33; L -0.669 ± 0.064; P -1.19 ± 0.13; M -0.376 ± 0.15; W -0.454 ± 0.091; E -0.1 ± 0.1; R -0.428 ± 0.06; V -1.14 ± 0.094; D 0.023 ± 0.12
S19: I -0.462 ± 0.17; V -0.517 ± 0.061; L -0.532 ± 0.085; T 0.227 ± 0.068; P -0.43 ± 0.081; H -0.459 ± 0.16; N 0.049 ± 0.081; W -0.58 ± 0.11; Y -0.822 ± 0.28; E -0.169 ± 0.1; M -0.285 ± 0.39; F -0.462 ± 0.19; A -0.372 ± 0.098; G -0.045 ± 0.1; R -0.687 ± 0.074; Q -0.584 ± 0.09; D -0.059 ± 0.19; K -0.529 ± 0.1
A25: H -0.012 ± 0.13; Y -0.159 ± 0.16; V -0.035 ± 0.063; C 0.177 ± 0.14; M 0.019 ± 0.11; D 0.045 ± 0.082; Q -0.068 ± 0.15; P -0.022 ± 0.11; L 0.139 ± 0.062; G 0.01 ± 0.061; E 0.096 ± 0.13; W -0.189 ± 0.075; N -0.109 ± 0.32; T -0.035 ± 0.11; F -0.093 ± 0.25; S 0.084 ± 0.096; R 0.051 ± 0.054
E9: W -0.416 ± 0.069; D 0.003 ± 0.12; Y -0.244 ± 0.22; S -0.133 ± 0.046; H -0.429 ± 0.37; R 0.085 ± 0.048; V -0.03 ± 0.083; T 0.039 ± 0.074; Q -0.032 ± 0.068; F -0.294 ± 0.16; M -0.135 ± 0.092; G -0.016 ± 0.095; L -0.201 ± 0.051; P -0.451 ± 0.058; A -0.189 ± 0.071
K28: Y -0.216 ± 0.35; T 0.002 ± 0.085; G -0.077 ± 0.064; I 0.013 ± 0.1; S -0.017 ± 0.074; N -0.133 ± 0.17; F -0.277 ± 0.27; C -0.01 ± 0.13; L -0.07 ± 0.053; D 0.068 ± 0.26; A 0.127 ± 0.31; M -0.051 ± 0.17; V 0.089 ± 0.07
G14: K 0.003 ± 0.11; W -0.718 ± 0.081; E -0.165 ± 0.14; V -0.672 ± 0.067; P -0.621 ± 0.081; D -0.188 ± 0.17; T -0.547 ± 0.12; Q 0.023 ± 0.077; R -0.018 ± 0.058; S -0.198 ± 0.083; M -0.308 ± 0.11; L -0.226 ± 0.079; C -0.264 ± 0.18
I18: C -0.311 ± 0.11; A -0.736 ± 0.095; M 0.081 ± 0.065; K -0.691 ± 0.17; P -1.15 ± 0.22; N -1.01 ± 0.33; T -0.763 ± 0.11; V -0.045 ± 0.13; F -0.747 ± 0.16; G -0.97 ± 0.12; D -0.965 ± 0.22; L 0.114 ± 0.054; E -1.01 ± 0.17; Y -0.592 ± 0.27; R -0.808 ± 0.073; H -0.917 ± 0.23
T12: D -0.42 ± 0.13; G -0.04 ± 0.054; R -0.201 ± 0.056; S -0.035 ± 0.072; H 0.039 ± 0.23; N 0.007 ± 0.22; K -0.03 ± 0.15; F -0.493 ± 0.18; V -0.351 ± 0.072; W -0.538 ± 0.11; L -0.279 ± 0.07; E -0.087 ± 0.13; Q -0.148 ± 0.13; C -0.148 ± 0.1; P -0.695 ± 0.12; M -0.349 ± 0.087
F10: T -0.144 ± 0.096; M -0.426 ± 0.12; P -0.864 ± 0.079; Q 0.156 ± 0.083; K -0.155 ± 0.12; A 0.11 ± 0.071; I -0.038 ± 0.11; D -1.13 ± 0.17; H 0.09 ± 0.065; S -0.148 ± 0.074; C -0.143 ± 0.079; W -0.076 ± 0.11; G -0.417 ± 0.081; L -0.449 ± 0.062; R -0.1 ± 0.059; E -0.445 ± 0.059; V -0.048 ± 0.065
A29: C -0.31 ± 0.3; D 0.063 ± 0.18
R8: K -0.068 ± 0.15; E -0.004 ± 0.1; C -0.141 ± 0.23; V -0.162 ± 0.054; G -0.238 ± 0.096; A -0.04 ± 0.058; P -0.573 ± 0.06; M -0.043 ± 0.083; N -0.023 ± 0.19; Y -0.153 ± 0.23; D 0.045 ± 0.12; I -0.156 ± 0.14; T 0.031 ± 0.11; S 0.01 ± 0.084; Q -0.1 ± 0.087

Source: the Human Domainome abundance scans (Beltran et al. 2025)
